Experimental data from the supplement of paper PMC10567573.

B1: PPP2R2B (parent)
chain: PSNRSFFSEIISSISDVKFSHSGR
B2: FAM189A2 (parent)
chain: NLAGFILGCQGAQFVSSVPRCDLV

Variants of: B1
Experiment: protein stability index of a GFP-peptide fusion (GPS, HEK-293T) (PSI 1-6); higher = more stable
Details: c terminus: a fixed tail appended
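Also: lentivirally expressed fusions sorted by FACS into six bins by GFP to DsRed ratio, PSI derived from sequencing read proportions per bin multiplied by bin number.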

Point of comparison: S15K, protein stability index 2.35. Against it:
- S13E — higher, 3.26
- S13Q — higher, 2.82
- S13C — lower, 2.19
- S13K — lower, 2.19
- S13T — higher, 2.64
- S13Y — lower, 1.65
- S13W — lower, 2.34
- S13I — higher, 2.5
- S13R — higher, 2.63
- S13M — lower, 1.76
- S13F — lower, 1.73
- S13D — higher, 2.58
- S13N — higher, 2.79
- S8N — higher, 2.44
- S8H — lower, 2.31
- S8Y — lower, 1.91
- S8P — higher, 2.69
- S8R — lower, 2.33
- S8Q — lower, 2.33
- S8D — lower, 2.32
- K18D — higher, 2.59
- K18H — lower, 2.04
- K18R — higher, 2.55
- K18I — lower, 2.33
- K18L — the same, 2.35
- K18W — higher, 2.38
- K18A — lower, 2.15
- K18G — higher, 2.66
- K18Q — higher, 2.47
- K18T — lower, 2.31
- G23H — lower, 2.27
- G23F — lower, 2.09
- G23S — lower, 2.33
- G23K — higher, 2.49
- G23P — higher, 2.74
- G23V — lower, 1.66
- S15R — lower, 2.25
- S15T — lower, 2.05
- S15Q — lower, 2.31
- S15W — lower, 2.34
- S15D — higher, 2.83
- S15M — lower, 2.08
- S15F — lower, 1.79
- S15G — higher, 2.65
- S15Y — lower, 2.05
- S15A — lower, 1.73
- S15I — lower, 2.26
- S15C — lower, 1.81
- S5P — higher, 2.88
- S5F — higher, 2.54
- S5L — lower, 2.13
- S5E — higher, 2.9
- S5Y — lower, 2.04
- S5T — lower, 2.31
- S5G — higher, 2.59
- S5C — lower, 1.65
- S5H — higher, 2.91
- S20Q — higher, 2.45
- S20Y — lower, 1.75
- S20M — lower, 1.95
- S20L — higher, 2.41
- S20H — lower, 2.18
- S20E — higher, 2.94
- S20G — lower, 2.26
- S20I — lower, 2.22
- S20T — higher, 2.78
- S20V — lower, 2.33
- H21W — lower, 2.31
- H21G — higher, 2.39
- H21S — lower, 1.93
- H21F — lower, 1.88
- H21C — lower, 2.22
- H21D — higher, 2.54
- H21N — higher, 2.48
- H21K — higher, 2.85
- H21Q — lower, 2.26
- P1D — higher, 2.77
- P1R — lower, 2.34
- P1H — lower, 1.8
- P1S — lower, 2.21
- P1W — lower, 1.83
- D16K — lower, 2.13
- D16C — lower, 1.92
- D16F — lower, 1.66
- D16W — lower, 1.99
- D16N — higher, 2.57
- D16M — lower, 2.02
- D16P — higher, 2.56
- D16S — lower, 1.92
- D16A — lower, 2.34
- D16H — lower, 2.19
- N3E — lower, 2.03
- N3K — lower, 2.12
- N3Y — higher, 2.55
- N3V — lower, 1.74
- N3W — higher, 2.75
- N3I — lower, 1.83
- N3P — higher, 2.49
- N3F — lower, 2.06
- N3S — higher, 2.57
- N3M — lower, 2.13
- N3C — lower, 2.19
- N3T — lower, 2.14
- N3L — lower, 2.17
- N3H — higher, 2.72
- E9C — lower, 2.03
- E9Q — lower, 2.31
- E9R — lower, 2.2
- E9W — lower, 1.91
- E9T — lower, 2.17
- E9F — lower, 1.63
- E9S — lower, 2.26
- E9N — higher, 2.36
- I10Y — higher, 3.01
- I10S — higher, 3.09
- I10V — higher, 2.83
- I10P — higher, 3.44
- I10L — lower, 1.79
- I10N — higher, 3.09
- I10E — higher, 3.64
- I10K — higher, 3.11
- F19L — higher, 2.93
- F19W — lower, 1.97
- F19I — higher, 2.43
- F19C — higher, 3.03
- F19H — higher, 3.02
- F19Q — higher, 2.79
- F19T — higher, 3.07
- S12M — lower, 2.04
- S12N — higher, 2.5
- S12K — higher, 2.49
- S12W — lower, 1.98
- S12H — lower, 2.32
- S12G — higher, 2.54
- S12D — higher, 2.54
- S12R — lower, 2.31
- S12T — lower, 2.28
- S12A — lower, 2.23
- S12Y — lower, 2.3
- S12P — higher, 2.65
- S12L — lower, 1.69
- R4I — higher, 2.79
- R4W — lower, 1.4
- R4Q — higher, 2.66
- R4S — higher, 2.8
- R4A — higher, 2.64
- R4M — lower, 2.1
- R4H — lower, 2.1
- R4L — higher, 2.41
- R4E — higher, 2.81
- R4Y — lower, 1.86
- R4N — lower, 2.2
- R4V — higher, 2.47
- R4F — lower, 1.81
- I11G — higher, 3.36
- I11Y — higher, 3.4
- I11T — higher, 3.19
- I11C — higher, 4.01
- I11N — higher, 3.21
- I11V — higher, 3.26
- I11E — higher, 3.59
- I11P — higher, 3.57
- I11Q — higher, 3.04
- I11F — higher, 4.67
- I11K — higher, 3
- I11M — higher, 2.69
- I11H — higher, 3.46
- F6E — higher, 3.22
- F6D — higher, 3.53
- F6P — higher, 3.02
- F6L — higher, 2.39
- F6T — higher, 3.4
- F6C — higher, 2.38
- F6G — higher, 3.31
- F6Q — higher, 2.89
- F6Y — higher, 2.52
- F6K — higher, 2.99
- V17A — lower, 2.27
- V17W — higher, 2.49
- V17M — higher, 2.53
- V17Y — lower, 2.29
- V17T — higher, 2.72
- V17L — higher, 2.75
- V17I — higher, 2.53
- V17P — higher, 2.63
- V17Q — higher, 2.81
- R24D — higher, 3.18
- R24G — lower, 2.21
- R24M — lower, 1.97
- R24V — lower, 1.59
- R24I — lower, 1.61
- R24C — lower, 1.87
- R24P — lower, 2.31
- R24E — higher, 2.94
- S2Y — higher, 2.64
- S2A — higher, 2.54
- S2V — lower, 2.29
- S2M — lower, 2.17
- S2W — lower, 2.18
- S2N — lower, 2.29
- S2G — higher, 2.66
- I14G — higher, 3.26
- I14A — higher, 2.79
- I14H — higher, 2.79
- I14K — higher, 3.17
- I14Y — lower, 2.19
- I14D — higher, 3.04
- I14W — higher, 2.4
- I14R — higher, 3.05
- I14L — higher, 2.54
- I14T — higher, 3.09
- I14P — higher, 3.05
- I14C — higher, 2.46
- I14N — higher, 3.05
- F7N — higher, 3.48
- F7T — higher, 2.79
- F7Y — higher, 2.51
- F7A — higher, 3.38
- F7D — higher, 3.56
- F7Q — higher, 3.64
- F7W — higher, 2.41
- S22Q — higher, 2.43
- S22T — higher, 2.42
- S22A — higher, 2.4
- S22D — higher, 2.79
- S22H — higher, 2.48
- S22E — higher, 2.37
- S22C — lower, 1.89

Variants of: B2
Experiment: as above
Details: c terminus: a fixed tail appended

Point of comparison: S16Y, protein stability index 4.96. Against it:
- L2G — lower, 1.23
- L2Q — lower, 3.01
- L2Y — lower, 2.72
- L2K — lower, 2.67
- L2D — lower, 3.18
- L2I — lower, 3.93
- G8I — lower, 3.23
- A3Y — lower, 3.97
- A3D — lower, 1.84
- A3R — lower, 1.72
- A3M — lower, 3.4
- A3P — lower, 1.45
- S17E — lower, 2.31
- S17H — lower, 3.37
- S17D — lower, 1.72
- S17Q — lower, 2.31
- S17W — lower, 3.85
- N1L — lower, 2.75
- N1C — lower, 2.92
- N1A — lower, 3.77
- V15L — lower, 3.14
- V15E — lower, 1.94
- V15K — lower, 2.19
- L23C — lower, 3.66
- L23G — lower, 1.28
- L23K — lower, 1.94
- L23Y — lower, 2.52
- L23I — lower, 2.33
- P19A — lower, 3.01
- C9L — lower, 1.76
- C9A — lower, 2.62
- C9E — lower, 2.54
- C9K — lower, 1.74
- C9S — lower, 2.71
- V18E — lower, 1.05
- V18F — lower, 2.54
- V18G — lower, 1.61
- S16C — lower, 2.58
- S16N — lower, 1.72
- S16E — lower, 2.21
- S16L — lower, 2.34
- S16G — lower, 3.41
- S16W — lower, 3.86
- A12L — lower, 2.95
- A12R — lower, 3.12
- A12W — lower, 2.15
- A12K — lower, 1.89
- A12D — lower, 4.07
- V24C — lower, 3.68
- V24A — lower, 1.72
- V24Q — lower, 2.26
- V24K — lower, 1.82
- V24P — lower, 2.59
- Q13Y — lower, 3.26
- R20K — lower, 2.1
- R20F — lower, 2.19
- R20Y — lower, 1.75
- R20M — lower, 2.91
- R20D — lower, 3.39
- R20G — lower, 3.08
- R20L — lower, 1.87
- R20P — lower, 2.2
- I6N — lower, 2.11
- I6A — lower, 1.46
- I6H — lower, 1.64
- I6E — lower, 1.49
- I6G — lower, 1.79
- I6D — lower, 2.68
- I6W — lower, 1.76
- I6F — lower, 2.78
- I6R — lower, 1.78
- L7P — lower, 1.43
- L7M — lower, 2
- L7H — lower, 1.73
- L7N — lower, 2.75
- L7G — lower, 1.82
- C21S — lower, 1.68
- C21T — lower, 2.56
- C21A — lower, 2.57
- C21M — lower, 2.81
- C21N — lower, 2.79
- C21H — lower, 2.54
- G4C — lower, 3.26
- G4Y — lower, 4.24
- G4M — lower, 4.18
- D22E — lower, 1.18
- D22C — lower, 2.27
- D22I — lower, 2.13
- D22F — lower, 2.58
- D22N — lower, 3.21
- D22K — lower, 2.59
- F5E — lower, 2.18
- F5H — lower, 2.71
- F5P — lower, 3.25
- F5S — lower, 1.87
- F5N — lower, 2.19
- Q10M — lower, 3.99
- Q10P — lower, 4.29
- Q10T — lower, 3.84
- F14T — lower, 1.27
- F14Q — lower, 1.92
- F14P — lower, 2.4
- F14Y — lower, 2.9
- F14W — lower, 2.78
